Laboratory results: US20100092465A1, “TREATMENT OF GRAFT-VERSUS-HOST DISEASE” (priority 2006, published 2010)

Assays:
[1] = target: T1, human ligand (single-chain IL27) (Homo sapiens, UniProt Q14213+Q8NEV9); assay: SPR kinetics of soluble receptor with human IL27 ligand; settings: binding with human ligand; gp130 not included
T1 construct: amino-terminal peptide tag (N)
T1 sequence (Q14213+Q8NEV9 with tags, fused parts or gaps): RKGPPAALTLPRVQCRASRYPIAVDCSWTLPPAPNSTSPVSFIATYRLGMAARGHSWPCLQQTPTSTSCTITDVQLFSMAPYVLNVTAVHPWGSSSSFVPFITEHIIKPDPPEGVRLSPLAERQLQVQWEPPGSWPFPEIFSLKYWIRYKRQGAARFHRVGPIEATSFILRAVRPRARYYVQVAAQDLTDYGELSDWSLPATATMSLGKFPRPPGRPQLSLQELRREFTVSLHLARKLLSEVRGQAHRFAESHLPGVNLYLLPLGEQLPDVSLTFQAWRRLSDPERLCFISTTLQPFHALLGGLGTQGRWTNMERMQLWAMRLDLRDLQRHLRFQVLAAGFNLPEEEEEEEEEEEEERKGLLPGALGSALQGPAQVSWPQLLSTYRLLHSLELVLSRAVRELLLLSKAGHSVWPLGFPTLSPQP
Protocol: Kinetic rate and affinity constant values for the mouse (IL27RAm(mFc1), Example 3) and human (IL27RA-Fc5, Example 4) soluble receptors were obtained by surface plasmon resonance (SPR) using an automated instrument (BIACORE 3000; Biacore International AB, Uppsala, Sweden). The mouse soluble receptor was tested against mouse ligand (lot A1418F), and the human soluble receptor was tested against both mouse (A1426F) and human (A1534F) ligands. For determination of the kinetic rate constants for the receptor-ligand interactions, the gp130 molecule was not included as part of the receptor complex.
The IL27 ligands used in this study were single-chain molecules comprising EBI3 connected by its C-terminus to the N-terminus of IL-27 p28 via a polypeptide linker. Each of the ligands included an amino-terminal peptide tag.
For the mouse IL27RA study, the soluble receptor was captured onto the chip surface by an isotype-specific anti-mouse Fc antibody (obtained from Jackson ImmunoResearch Laboratories, Inc., West Grove, Pa.) covalently immobilized to the chip (BIACORE CM5 chip) using the standard amine coupling protocol specified by the instrument manufacturer. […]
All data were assessed using software provided with the instrument (BIACORE Evaluation software v. 3.2). […]

muIL-27 = target: T2, muIL-27 (Mus musculus, UniProt O35228+Q8K3I6); assay: Phospho-STAT3 neutralization assay, mouse spleens, muIL-27; type: cell-based; settings: ligand muIL-27 at EC90
T2 sequence (O35228 19-228): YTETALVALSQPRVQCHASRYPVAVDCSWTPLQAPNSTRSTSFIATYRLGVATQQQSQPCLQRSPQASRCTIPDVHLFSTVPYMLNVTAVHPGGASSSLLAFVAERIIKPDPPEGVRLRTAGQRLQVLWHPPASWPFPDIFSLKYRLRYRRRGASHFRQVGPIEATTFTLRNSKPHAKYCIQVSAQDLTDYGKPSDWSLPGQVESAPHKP
T2 sequence (Q8K3I6 29-234): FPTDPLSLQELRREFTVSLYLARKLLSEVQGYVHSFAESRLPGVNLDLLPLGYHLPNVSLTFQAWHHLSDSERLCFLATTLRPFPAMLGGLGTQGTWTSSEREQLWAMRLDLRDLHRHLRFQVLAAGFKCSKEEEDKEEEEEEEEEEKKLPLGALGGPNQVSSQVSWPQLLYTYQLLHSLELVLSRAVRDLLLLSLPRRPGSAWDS
From the text: Whole mouse spleens were harvested from C57 B1/6 mice and washed two times with 1×PBS before being plated out at 2×10^5 cells/well in assay media (RPMI 1640 plus 10% fetal bovine serum) in 96-well, round-bottom tissue culture plates. Total human PBMC (peripheral blood mononuclear cells) were thawed from a frozen vial collected from a leukapherisis donation and washed two times with 1×PBS before being plated out at 10^6 cells/well in assay media in 96-well, round-bottom tissue culture plates. […] Following pre-incubation, treatments were added to the plates containing the cells and incubated together at 37° C. for 15 minutes.
Following incubation, cells were washed with ice-cold wash buffer (BIO-PLEX Cell Lysis Kit, BIO-RAD Laboratories, Hercules, Calif.) and put on ice to stop the reaction according to manufacturer's instructions. […]
Capture beads (BIO-PLEX Phospho-Stat3 Assay, BIO-RAD Laboratories) were combined with 50 μL of 1:1 diluted lysates and added to a 96-well filter plate according to manufacture's instructions (BIO-PLEX Phosphoprotein Detection Kit, BIO-RAD Laboratories). […] After the final wash, beads were resuspended in 125 μL/well of bead suspension buffer, shaken for 30 seconds, and read on an array reader (BIO-PLEX, BIO-RAD Laboratories) according to the manufacture's instructions. Data were analyzed using analytical softward (BIO-PLEX MANAGER 3.0, BIO-RAD Laboratories). […]

ka [1]: 1e+07 M⁻¹ s⁻¹
kd [1]: 0.0019 s⁻¹
IC50 (muIL-27): 0.14 nM
Substance: human IL-27RA-Fc5: human IL27RA extracellular domain (amino acids 1 to 512 of SEQ ID NO:5) fused to Fc5, effector minus human gamma1 Fc; SEQ ID NO:3
